From patent publication US20230227538A1 (University of California, published 2023)
Positions count from the first letter of the chain named. Values joined by “and” are separate entries in the source; they are usually repeats but may differ in a detail not shown here. Equal entries are not always repeated.

Columns and labels:
[1] = target: T1, SARS-CoV-2 Spike ectodomain, stabilized prefusion trimer (spike ECD, Spike^S2P) (SARS-CoV-2); test: SPR, slow phase of a biphasic dissociation from Spike^S2P
T1 construct: also called SC2 Spike ECD; Spike trimer

[2] = target: T1, SARS-CoV-2 Spike ectodomain, stabilized …; test: SPR on captured Spike^S2P
[3] = target: T1, SARS-CoV-2 Spike ectodomain, stabilized …; test: SPR, fast phase of a biphasic dissociation from Spike^S2P
[4] = target: T1, SARS-CoV-2 Spike ectodomain, stabilized …
[5] = target: T1, SARS-CoV-2 Spike ectodomain, stabilized …; remark: listed apart in the source
[6] = target: T1, SARS-CoV-2 Spike ectodomain, stabilized …; test: SPR, Spike^S2P captured on a StreptactinXT chip
[7] = target: Spike protein of live SARS-CoV-2 (isolate France/IDF0372/2020) (SARS-CoV-2, UniProt P0DTC2 14-1273); test: cell-based or functional assay
[8] = target: T1, SARS-CoV-2 Spike ectodomain, stabilized …; test: SPR
[9] = target: T1, SARS-CoV-2 Spike ectodomain, stabilized …; test: SPR, no measurable dissociation over ten minutes

B1: Nb6-bi (bivalent Nb6 with a 15 amino acid linker) (VHH)
chain: QVQLVESGGGLVQAGGSLRLSCAASGIIFGRNAMGWYRQAPGKERELVAGITRRGSITYYADSVKGRFTISRDNAKNTVYLQMNSLKPEDTAVYYCAADPASPAPGDYWGQGTQVTVSSGGGGSGGGGSGGGGSQVQLVESGGGLVQAGGSLRLSCAASGIIFGRNAMGWYRQAPGKERELVAGITRRGSITYYADSVKGRFTISRDNAKNTVYLQMNSLKPEDTAVYYCAADPASPAPGDYWGQGTQVTVSS
koff [1]: 0.00031 s⁻¹
fold gain in KD against Nb6 [2]: 750 fold
koff [3]: 0.027 s⁻¹

B2: Nb6 (AeroNab6, NbCOV6, clone pNbCOV006A) (VHH)
VHH: QVQLVESGGGLVQAGGSLRLSCAASGIIFGRNAMGWYRQAPGKERELVAGITRRGSITYYADSVKGRFTISRDNAKNTVYLQMNSLKPEDTAVYYCAADPASPAPGDYWGQGTQVTVSS
notes: also called AeroNab6 MASC monomer; Parent clone (NbCOV6)
IC50 [4]: 370 nM
EC50 [5]: 359 nM
koff [2]: 0.056 s⁻¹
Kd [6]: 210 nM

B3: mNb6 (matured Nb6, mNbCOV6, AeroNab6m) (VHH)
VHH: B2 VHH with I27Y, P105Y
EC50 [5]: 0.056 nM

B4: Nb6-tri (trivalent Nb6 with two 20 amino acid linkers) (VHH)
chain: QVQLVESGGGLVQAGGSLRLSCAASGIIFGRNAMGWYRQAPGKERELVAGITRRGSITYYADSVKGRFTISRDNAKNTVYLQMNSLKPEDTAVYYCAADPASPAPGDYWGQGTQVTVSSGGGGSGGGGSGGGGSGGGGSQVQLVESGGGLVQAGGSLRLSCAASGIIFGRNAMGWYRQAPGKERELVAGITRRGSITYYADSVKGRFTISRDNAKNTVYLQMNSLKPEDTAVYYCAADPASPAPGDYWGQGTQVTVSSGGGGSGGGGSGGGGSGGGGSQVQLVESGGGLVQAGGSLRLSCAASGIIFGRNAMGWYRQAPGKERELVAGITRRGSITYYADSVKGRFTISRDNAKNTVYLQMNSLKPEDTAVYYCAADPASPAPGDYWGQGTQVTVSS
koff [1]: < 1e-06 s⁻¹
IC50, plaque assay with live SARS-CoV-2 on VeroE6 cells [7]: 0.16 nM
fold gain in KD against Nb6 [2]: > 200000 fold
koff [3]: 0.029 s⁻¹

B5: mNb6-tri (trivalent mNb6 with a 20 amino acid linker) (VHH)
chain: B4 chain with I27Y, P105Y, I166Y, P244Y, I305Y, P383Y
Kd [8]: < 0.001 nM
dissociation half-life t½ [8]: > 192 h
koff [9]: < 1e-06 s⁻¹
IC50, live SARS-CoV-2 infection assay [7]: 54 pM and 2.3 ng/mL
